From publication PMC2827208

Columns and labels:
[1] = target: dsRed-tagged RetGC1 (human) (UniProt Q02846); test: ratio of GFP and dsRed tag fluorescence in co-transfected cells
R838S RetGC1 (human) = R838S RetGC1 (human) (UniProt Q02846); test: co-localisation of GCAP1-GFP with RetGC1 in co-transfected cells
[2] = target: wild type recombinant human RetGC1 (human) (UniProt Q02846); test: as above

With “GFP-tagged bovine GCAP1 (from UniProt P46065 1-205) (natural protein)” the stoichiometry N (GCAP1 per RetGC1) [1] was 0.86, the stoichiometry N ([1]; scale: molar ratio between the two proteins at saturation) was 1.01 and the cell:nucleus GCAP1-GFP fluorescence intensity ratio (R838S RetGC1 (human)) was 9.3. It also gave a cell:nucleus GCAP1-GFP fluorescence intensity ratio [2] of 10.6.
